Results reported in publication PMC6212790, “How bacterial xenogeneic silencer rok distinguishes foreign from self DNA in its resident genome” (Nucleic Acids Research, 2018).

Experiments:
Rok-C114-185 R174A [1] = target: T1, Rok-C114-185 R174A (Bacillus subtilis subsp. subtilis str. …, UniProt O34857 114-185, R174A); experiment: ITC; ITC: sodium phosphate buffer, 200 mM NaCl, pH 6, 277 K, 50 uM protein in cell, 750 uM Seq1 DNA; NMR samples: 50 mM sodium phosphate, 50 mM NaCl, pH 6.0; conditions: protein: recombinant; tags: C-terminal His6; blunt, self-complementary 18 bp
T1 sequence: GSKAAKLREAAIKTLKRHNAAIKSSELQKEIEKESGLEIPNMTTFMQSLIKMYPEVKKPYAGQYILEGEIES

Rok-C114-185 T156A [2] = target: T2, Rok-C114-185 T156A (Bacillus subtilis subsp. subtilis str. …, UniProt O34857 114-185, T156A); experiment: as above; conditions: protein: recombinant; tags: C-terminal His6; blunt, self-complementary 18 bp
T2 sequence: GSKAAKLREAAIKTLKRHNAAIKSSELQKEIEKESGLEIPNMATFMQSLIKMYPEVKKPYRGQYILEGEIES

Rok-C114-185 R174A [3] = target: T1, Rok-C114-185 R174A; experiment: ITC; ITC: sodium phosphate buffer, 200 mM NaCl, pH 6, 277 K, 50 uM protein in cell titrated with 750 uM Seq1 DNA; PBM: buffer not stated; conditions: protein: recombinant; tags: C-terminal His6; blunt, self-complementary 18 bp
Rok-C114-185 K171A = target: T3, Rok-C114-185 K171A (Bacillus subtilis subsp. subtilis str. …, UniProt O34857 114-185, K171A); experiment: as above; conditions: protein: recombinant; tags: C-terminal His6; blunt, self-complementary 18 bp
T3 sequence: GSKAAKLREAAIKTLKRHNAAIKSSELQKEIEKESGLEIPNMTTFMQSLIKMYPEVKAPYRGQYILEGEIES

Rok-C114-185 = target: T4, Rok-C114-185 (Bacillus subtilis subsp. subtilis str. …, UniProt O34857 114-185); experiment: as above; conditions: protein: recombinant; tags: C-terminal His6; blunt, self-complementary 18 bp
T4 sequence: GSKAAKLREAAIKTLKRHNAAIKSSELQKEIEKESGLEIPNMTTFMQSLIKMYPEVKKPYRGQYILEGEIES

Rok-C102-185 [4] = target: T5, Rok-C102-185 (Bacillus subtilis subsp. subtilis str. …, UniProt O34857 102-185); experiment: as above; conditions: protein: recombinant; tags: C-terminal His6; blunt, self-complementary 18 bp
T5 sequence: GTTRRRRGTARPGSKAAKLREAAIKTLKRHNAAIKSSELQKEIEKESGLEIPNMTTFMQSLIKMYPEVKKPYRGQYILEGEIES

Rok-C114-185 K164A = target: T6, Rok-C114-185 K164A (Bacillus subtilis subsp. subtilis str. …, UniProt O34857 114-185, K164A); experiment: as above; conditions: protein: recombinant; tags: C-terminal His6; blunt, self-complementary 18 bp
T6 sequence: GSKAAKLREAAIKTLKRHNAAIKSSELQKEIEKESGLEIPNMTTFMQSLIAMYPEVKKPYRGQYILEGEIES

Rok-C114-185 T157A = target: T7, Rok-C114-185 T157A (Bacillus subtilis subsp. subtilis str. …, UniProt O34857 114-185, T157A); experiment: as above; conditions: protein: recombinant; tags: C-terminal His6; blunt, self-complementary 18 bp
T7 sequence: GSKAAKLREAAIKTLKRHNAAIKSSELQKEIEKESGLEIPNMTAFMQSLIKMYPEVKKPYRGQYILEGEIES

Rok-C114-185 K116A = target: T8, Rok-C114-185 K116A (Bacillus subtilis subsp. subtilis str. …, UniProt O34857 114-185, K116A); experiment: as above; conditions: protein: recombinant; tags: C-terminal His6; blunt, self-complementary 18 bp
T8 sequence: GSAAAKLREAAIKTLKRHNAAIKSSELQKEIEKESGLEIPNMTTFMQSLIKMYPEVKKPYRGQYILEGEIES

Rok-C114-185 K136A = target: T9, Rok-C114-185 K136A (Bacillus subtilis subsp. subtilis str. …, UniProt O34857 114-185, K136A); experiment: as above; conditions: protein: recombinant; tags: C-terminal His6; blunt, self-complementary 18 bp
T9 sequence: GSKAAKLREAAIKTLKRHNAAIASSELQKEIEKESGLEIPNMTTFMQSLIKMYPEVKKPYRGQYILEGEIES

Rok-C114-185 T156A [5] = target: T2, Rok-C114-185 T156A; experiment: as above; conditions: protein: recombinant; tags: C-terminal His6; blunt, self-complementary 18 bp
[6] = target: the molecule itself; experiment: SEC; gel filtration on a GE HiLoad 16/600 Superdex 75 preparation grade column; elution volumes compared with cytochrome C (12.4 kD) and the void volume
Rok-C97-191 = target: T10, Rok-C97-191 (Bacillus subtilis subsp. subtilis str. …, UniProt O34857 97-191); experiment: NMR titration; ITC: sodium phosphate buffer, 200 mM NaCl, pH 6, 277 K, 50 uM protein in cell, 750 uM Seq1 DNA; NMR samples: 50 mM sodium phosphate, 50 mM NaCl, pH 6.0; conditions: protein: recombinant; tags: C-terminal His6; blunt, self-complementary 12 bp
T10 sequence: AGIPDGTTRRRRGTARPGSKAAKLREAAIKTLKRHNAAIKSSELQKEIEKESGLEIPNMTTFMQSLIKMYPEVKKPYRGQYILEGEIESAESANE

Rok-C102-185 [7] = target: T5, Rok-C102-185; experiment: NMR HSQC; ITC: sodium phosphate buffer, 200 mM NaCl, pH 6, 277 K, 50 uM protein in cell, 750 uM Seq1 DNA; NMR samples: 50 mM sodium phosphate, 50 mM NaCl, pH 6.0; conditions: protein: recombinant, tags: C-terminal His6, blunt

B1: Seq1 (dsDNA)
DNA 1: CTAATAACTAGTTATTAG
DNA 2: CTAATAACTAGTTATTAG
Kd (Rok-C114-185 R174A [1]): 89 ± 42 µM
Kd (Rok-C114-185 T156A [2]): 42.9 ± 7.1 µM
Kd (Rok-C114-185 R174A [3]): 89 ± 42 µM
Kd (Rok-C114-185 K171A): 110 ± 35 µM
Kd (Rok-C114-185): 19.7 ± 2.7 µM
Kd (Rok-C102-185 [4]): 7.9 ± 1.3 µM
Kd (Rok-C114-185 K164A): 30.9 ± 2.9 µM
Kd (Rok-C114-185 T157A): 15 ± 1.9 µM
Kd (Rok-C114-185 K116A): 42.9 ± 8.1 µM
Kd (Rok-C114-185 K136A): 39.4 ± 6.4 µM
Kd (Rok-C114-185 T156A [5]): 42.9 ± 7.1 µM

B2: Rok (full-length Rok protein, Bacillus subtilis subsp. subtilis str. 168) (natural protein, B. subtilis subsp. subtilis str. 168, UniProt O34857 1-191, looked up)
chain: MFNEREALRLRLEQLNEAEVKVIREYQIERDKIYAKLRELDRNGSPSEIKKDFRSEKKPDSLPVLAELAAQEIRSYQPQSQQQSVQPQLQSISSLPAGIPDGTTRRRRGTARPGSKAAKLREAAIKTLKRHNAAIKSSELQKEIEKESGLEIPNMTTFMQSLIKMYPEVKKPYRGQYILEGEIESAESANE
notes: Rok, xenogeneic silencer of Bacillus subtilis subsp. subtilis str; cloned into pET-21a(+) NdeI/XhoI; size of the higher order oligomer not determined; source: E. coli Rosetta (DE3), purified (Ni-NTA, size exclusion chromatography)
binding result [6]: binds

B3: 3AT (dsDNA)
DNA 1: CGCATATATGCG
DNA 2: CGCATATATGCG
binding result (Rok-C97-191): binds
binding result (Rok-C102-185 [7]; self-complementary 12 bp): binds

B4: Rok-N^1-95 (N-terminal domain of Rok, residues 1-95) (domain or fragment, B. subtilis subsp. subtilis str. 168, UniProt O34857 1-95, looked up)
chain: MFNEREALRLRLEQLNEAEVKVIREYQIERDKIYAKLRELDRNGSPSEIKKDFRSEKKPDSLPVLAELAAQEIRSYQPQSQQQSVQPQLQSISSL
notes: Rok of Bacillus subtilis subsp. subtilis str; cloned into pET-21a(+) NdeI/XhoI; source: E. coli Rosetta (DE3), purified (Ni-NTA, size exclusion chromatography)
binding result [6]: binds

B5: 8AT (dsDNA)
DNA 1: CATATATATATATATATG
DNA 2: CATATATATATATATATG
binding result (Rok-C102-185 [7]; self-complementary 18 bp): binds
